From US20130266517A1 (published 2013) come the findings set out here.

Substitutions are numbered along the chain they refer to.

For experiment [1], the target named is T1, alpha-synuclein (natural human wildtype alpha-synuclein) (human, UniProt P37840 1-140). The experiment can be described thus: Biacore (SPR) full kinetic analysis. The procedure:
Biacore full binding kinetic analysis of antibodies were carried out using Biacore. Detailed binding kinetic parameters (association rate, ka, dissociation rate, kd, and affinity constant, KD) were determined for murine 1H7 (FIG. 3A), chimeric 1H7 (FIG. 3B) and humanized 1H7 (Hu1H7VHv3-Hu1H7VLv3, Hu1H7VHv3-Hu1H7VLv1, Hu1H7VHv4-Hu1H7VLv1) antibodies (FIG. 3C).

Experiment [2] concerns the target T1, alpha-synuclein (natural human wildtype …). The experiment in a line: BLI, ForteBio Octet QK; apparent KD. The procedure:
(§1) Binding kinetic of humanized 1H7 antibodies were also measured by bio-layer interferometry (BLI) using a ForteBio Octet QK instrument (ForteBio, Menlo Park, Calif.). Detailed binding kinetic parameters (association rate, apparent ka, dissociation rate, apparent kd, and affinity constant, apparent KD) were determined for chimeric 1H7 and various humanized 1H7 antibodies (Tables 6-7, FIGS. 4A-C). Apparent ka, apparent kd and apparent KD are binding kinetic parameters obtained using ForteBio assay formats. These parameters differ from ka, kd and KD measured using Biocore assays due to, e.g., avidity effects associated with ForteBio assay formats.

For experiment [3] the target is unchanged. The experiment can be described thus: BLI, ForteBio Octet QK; apparent kd. The procedure:
as §1

Experiment [4] has the same target. The experiment can be described thus: BLI, ForteBio Octet QK; apparent ka. The method, then:
as §1

B1: Murine 1H7 (antibody, mouse IgG1, V domains shown)
VH: VQLQQSGPELVKPGTSVKISCKASGYSFTSYYIHWVKQSPGQGLEWIGWIYPGSGNTKYSEKFKGKATLTADTSSSTAYMQLSSLTSEDSAVYFCARDGCYGFAYWGQGTLVTVS
VL: DIVLTQSPASLAVSLGQRATISCKASQSVDYDGDSYMNWYQQKPGQPPKFLICAASNLESGIPARFSGSGSGTDFTLNIHPVEEEDAATYYCQQSNEDPFTFGSGTKLEIK
notes: Mouse IgG1; also called m1H7; mouse 1H7
For the molecule B1, in experiment [1], the Kd came to 9.5 nM, the koff was 0.0096 s⁻¹ and the on-rate constant (kon) was 1e+06 M⁻¹ s⁻¹.

B2: Humanized 1H7 H2L1 (Hu1H7VHv2-Hu1H7VLv1) (antibody, V domains shown)
VH: QVQLVQSGAEVKKPGASVKVSCKASGYSFTSYYIHWVRQAPGQGLEWIGWIYPGSGNTKYSEKFKGRATLTADTSTSTAYMELRSLRSDDTAVYFCARDGCYGFAYWGQGTLVTVSS
VL: DIQLTQSPSSLSASVGDRVTITCKASQSVDYDGDSYMNWYQQKPGKAPKFLICAASNLESGVPSRFSGSGSGTDFTLTISSLQPEDAATYYCQQSNEDPFTFGQGTKLEIK
With B2, the Kd in experiment [2] was found to be 0.0072 nM. In addition, the koff in experiment [3] is 4.2e-06 s⁻¹. Further, the kon in experiment [4] came to 580000 M⁻¹ s⁻¹.

B3: Humanized 1H7 H5L1 (Hu1H7VHv5-Hu1H7VLv1) (antibody, V domains shown)
VH: B2 VH with S28T, I48M, L70M, F95Y, C101S
VL: B2 VL
In experiment [1], B3 showed a Kd of 64 nM, an off-rate constant (koff) of 0.056 s⁻¹ and a kon of 880000 M⁻¹ s⁻¹.

B4: Humanized 1H7 H5L4 (Hu1H7VHv5-Hu1H7VLv4) (antibody, V domains shown)
VH: B2 VH with S28T, I48M, L70M, F95Y, C101S
VL: B2 VL with C53Y, A87F
B4: the Kd in experiment [2] worked out at 1.2 nM. Moreover, in experiment [3], the dissociation rate constant (koff) amounted to 0.0019 s⁻¹. Besides, the kon in experiment [4] is 1.6e+06 M⁻¹ s⁻¹.

B5: Humanized 1H7 H3L3 (Hu1H7VHv3-Hu1H7VLv3) (antibody, V domains shown)
VH: B2 VH with S28T, I48M, L70M, F95Y
VL: B2 VL with A87F
In experiment [1], B5 registered a Kd of 9 nM, a koff of 0.011 s⁻¹ and a kon of 1.3e+06 M⁻¹ s⁻¹.

B6: Humanized 1H7 H1L4 (Hu1H7VHv1-Hu1H7VLv4) (antibody, V domains shown)
VH: B2 VH with V11L, R38K
VL: B2 VL with C53Y, A87F
B6: the Kd in experiment [2] stood at 3.3 nM. Further, the koff in experiment [3] amounted to 0.0058 s⁻¹. The kon in experiment [4] worked out at 1.8e+06 M⁻¹ s⁻¹.

B7: Humanized 1H7 H4L2 (Hu1H7VHv4-Hu1H7VLv2) (antibody, V domains shown)
VH: B2 VH with C101S
VL: B2 VL with C53Y
As for B7, the Kd in experiment [2] was determined as 1.7 nM. Also, the koff in experiment [3] came to 0.0021 s⁻¹. The kon in experiment [4] was found to be 1.2e+06 M⁻¹ s⁻¹.

B8: Humanized 1H7 H5L3 (Hu1H7VHv5-Hu1H7VLv3) (antibody, V domains shown)
VH: B2 VH with S28T, I48M, L70M, F95Y, C101S
VL: B2 VL with A87F
For B8, in experiment [2], the Kd stood at 2.6 nM. Moreover, in experiment [3], the koff turned out to be 0.002 s⁻¹. Besides, the on-rate (kon) in experiment [4] was determined as 760000 M⁻¹ s⁻¹.

B9: Humanized 1H7 H3L1 (Hu1H7VHv3-Hu1H7VLv1) (antibody, V domains shown)
VH: B2 VH with S28T, I48M, L70M, F95Y
VL: B2 VL
In experiment [1], B9 yielded a Kd of 12 nM, a koff of 0.013 s⁻¹ and an on-rate (kon) of 1.1e+06 M⁻¹ s⁻¹.

B10: Humanized 1H7 H4L3 (Hu1H7VHv4-Hu1H7VLv3) (antibody, V domains shown)
VH: B2 VH with C101S
VL: B2 VL with A87F
B10: the Kd in experiment [2] stood at 2.7 nM. Besides, the koff in experiment [3] was 0.002 s⁻¹. Moreover, the kon in experiment [4] amounted to 740000 M⁻¹ s⁻¹.

B11: Humanized 1H7 H1L1 (Hu1H7VHv1-Hu1H7VLv1) (antibody, V domains shown)
VH: B2 VH with V11L, R38K
VL: B2 VL
For the molecule B11, the Kd in experiment [2] worked out at 4.8 nM. Moreover, the off-rate constant (koff) in experiment [3] was 0.0012 s⁻¹. In addition, the on-rate constant (kon) in experiment [4] came out at 250000 M⁻¹ s⁻¹.

B12: Humanized 1H7 H4L1 (Hu1H7VHv4-Hu1H7VLv1) (antibody, V domains shown)
VH: B2 VH with C101S
VL: B2 VL
As for B12, in experiment [1], the Kd stood at 33.9 nM, the koff was 0.033 s⁻¹ and the kon was 970000 M⁻¹ s⁻¹.

B13: Humanized 1H7 H1L2 (Hu1H7VHv1-Hu1H7VLv2) (antibody, V domains shown)
VH: B2 VH with V11L, R38K
VL: B2 VL with C53Y
Turning to B13, in experiment [2], the Kd is 5.8 nM. Besides, the koff in experiment [3] came out at 0.009 s⁻¹. The kon in experiment [4] was found to be 1.6e+06 M⁻¹ s⁻¹.

B14: Humanized 1H7 H1L3 (Hu1H7VHv1-Hu1H7VLv3) (antibody, V domains shown)
VH: B2 VH with V11L, R38K
VL: B2 VL with A87F
B14: the Kd in experiment [2] was determined as 2.9 nM. The dissociation rate constant (koff) in experiment [3] is 0.00064 s⁻¹. For the same molecule, the on-rate (kon) in experiment [4] was 220000 M⁻¹ s⁻¹.

B15: Humanized 1H7 H2L2 (Hu1H7VHv2-Hu1H7VLv2) (antibody, V domains shown)
VH: B2 VH
VL: B2 VL with C53Y
Turning to B15, the Kd in experiment [2] amounted to 2 nM. Also, in experiment [3], the koff was 0.0046 s⁻¹. In experiment [4], the kon is 2.3e+06 M⁻¹ s⁻¹.

B16: Humanized 1H7 H4L4 (Hu1H7VHv4-Hu1H7VLv4) (antibody, V domains shown)
VH: B2 VH with C101S
VL: B2 VL with C53Y, A87F
Consider B16, for which, in experiment [2], the Kd came out at 4.4 nM. For the same molecule, the off-rate constant (koff) in experiment [3] was 0.0023 s⁻¹. Moreover, the on-rate (kon) in experiment [4] came out at 520000 M⁻¹ s⁻¹.

B17: Humanized 1H7 H5L2 (Hu1H7VHv5-Hu1H7VLv2) (antibody, V domains shown)
VH: B2 VH with S28T, I48M, L70M, F95Y, C101S
VL: B2 VL with C53Y
In the case of B17, in experiment [2], the Kd came out at 4 nM. In addition, the koff in experiment [3] is 0.0021 s⁻¹. For the same molecule, the kon in experiment [4] is 520000 M⁻¹ s⁻¹.
